Data: patent US20130095108

T1: Corn Trypsin Inhibitor (CTI, Calbiochem), P01088
T1 chain: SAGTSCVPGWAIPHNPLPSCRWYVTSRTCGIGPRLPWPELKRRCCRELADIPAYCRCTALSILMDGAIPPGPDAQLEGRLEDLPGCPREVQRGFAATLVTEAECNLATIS

B1: FXII in bronchoalveolar lavage fluid (BALF) from IPF patients (protein)
chain: IPPWEAPKEHKYKAEEHTVVLTVTGEPCHFPFQYHRQLYHKCTHKGRPGPQPWCATTPNFDQDQRWGYCLEPKKVKDHCSKHSPCQKGGTCVNMPSGPHCLCPQHLTGNHCQKEKCFEPQLLRFFHKNEIWYRTEQAAVARCQCKGPDAHCQRLASQACRTNPCLHGGRCLEVEGHRLCHCPVGYTGAFCDVDTKASCYDGRGLSYRGLARTTLSGAPCQPWASEATYRNVTAEQARNWGLGGHAFCRNPDNDIRPWCFVLNRDRLSWEYCDLAQCQTPTQAAPPTPVSPRLHVPLMPAQPAPPKPQPTTRTPPQSQTPGALPAKREQPPSLTRNGPLSCGQRLRKSLSSMTRVVGGLVALRGAHPYIAALYWGHSFCAGSLIAPCWVLTAAHCLQDRPAPEDLTVVLGQERRNHSCEPCQTLAVRSYRLHEAFSPVSYQHDLALLRLQEDADGSCALLSPYVQPVCLPSGAARPSETTLCQVAGWGHQFEGAEEYASFLQEAQVPFLSLERCSAPDVHGSSILPGMLCAGFLEGGTDACQGDSGGPLVCEDQAAERRLTLQGIISWGSGCGDRNKPGVYTDVAYYLAWIREHTVS
B2: FXIIa (activated factor XII; American Diagnostica, Stamford, Conn.) (protein)
chain: B1 chain

What was measured:
[1] = molecular target: T1, Corn Trypsin Inhibitor (CTI, …)
[2] = molecular target: Peptide LRG20 (position 166-185) from uPAR's domain 2
[3] = molecular target: Peptide TCK from uPAR's domain 2 (position 196-214)

| Protein | FXII activity assay using chromogenic substrate [1] | [3H]-thymidine incorporation in murine lung fibroblasts [1] | p44/42 and Akt phosphorylation (Western blot) in murine lung fibroblasts [1] | [3H]-thymidine incorporation in murine lung fibroblasts (random peptide) | [3H]-thymidine incorporation in murine lung fibroblasts [2] | [3H]-thymidine incorporation in murine lung fibroblasts [3] |
| --- | --- | --- | --- | --- | --- | --- |
| B1 | The specificity of performed assay was proved by blockade of FXII activity by its inhibitor, Corn Trypsin Inhibitor (CTI) | – | – | – | – | – |
| B2 | – | FXII-induced proliferation was blocked by FXIIa specific inhibitor, CTI | CTI attenuated p44/42 and Akt phosphorylation after 30 min of FXIIa exposure | peptide TCK from domain 2 (position 196-214) and random peptide had no effect on FXIIa induced proliferation | Peptide LRG20 (position 166-185) from uPAR's domain 2 blocked increase in DNA synthesis after FXIIa stimulation | peptide TCK from domain 2 (position 196-214) and random peptide had no effect on FXIIa induced proliferation |
